Experimental data from publication PMC9482650, “Quantitative fragmentomics allow affinity mapping of interactomes” (Nature Communications, 2022).
Residue numbers refer to the chain shown, from its start.

T1: DLG3_1, Q92796
T1 sequence (Q92796 125-227, limits assumed, looked up): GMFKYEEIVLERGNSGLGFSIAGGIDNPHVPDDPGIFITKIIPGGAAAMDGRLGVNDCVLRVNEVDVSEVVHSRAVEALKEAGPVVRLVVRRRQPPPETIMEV

T2: TX1BP3, O14907
T2 sequence (O14907 10-122, limits assumed, looked up): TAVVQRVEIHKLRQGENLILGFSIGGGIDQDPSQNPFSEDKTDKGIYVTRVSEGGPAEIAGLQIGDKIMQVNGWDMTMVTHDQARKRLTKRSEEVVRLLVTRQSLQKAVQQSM

T3: ARHGEF11, O15085
T3 sequence (O15085 42-136, limits assumed, looked up): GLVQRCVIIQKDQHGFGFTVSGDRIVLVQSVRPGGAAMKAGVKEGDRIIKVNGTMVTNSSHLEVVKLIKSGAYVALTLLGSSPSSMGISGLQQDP

T4: LIN7C, Q9NUP9
T4 sequence (Q9NUP9 88-185, limits assumed, looked up): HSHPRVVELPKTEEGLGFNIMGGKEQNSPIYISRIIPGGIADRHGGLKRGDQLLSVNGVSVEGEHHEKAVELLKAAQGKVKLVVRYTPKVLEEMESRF

T5: RAPGEF6, Q8TEU7
T5 sequence (Q8TEU7 525-625, limits assumed, looked up): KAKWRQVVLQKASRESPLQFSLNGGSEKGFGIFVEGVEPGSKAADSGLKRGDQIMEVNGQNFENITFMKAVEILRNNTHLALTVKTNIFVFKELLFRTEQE

T6: PCLO, Q9Y6V0
T6 sequence (Q9Y6V0 4491-4600, limits assumed, looked up): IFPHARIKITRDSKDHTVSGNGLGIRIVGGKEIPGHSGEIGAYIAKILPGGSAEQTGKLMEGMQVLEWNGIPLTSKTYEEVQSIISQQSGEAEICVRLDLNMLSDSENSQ

T7: PARD3B_1, Q8TEW8
T7 sequence (Q8TEW8 196-299, limits assumed, looked up): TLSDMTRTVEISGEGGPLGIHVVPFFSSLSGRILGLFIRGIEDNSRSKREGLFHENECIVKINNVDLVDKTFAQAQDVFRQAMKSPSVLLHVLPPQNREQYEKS

T8: LIN7A, O14910
T8 sequence (O14910 103-200, limits assumed, looked up): T4 sequence (Q9NUP9 88-185, limits assumed, looked up) with E13D, I20V, I40V, D42E, Q77K, G78D, K79S, S96A

T9: APBA1_2, Q02410
T9 sequence (Q02410 742-832, limits assumed, looked up): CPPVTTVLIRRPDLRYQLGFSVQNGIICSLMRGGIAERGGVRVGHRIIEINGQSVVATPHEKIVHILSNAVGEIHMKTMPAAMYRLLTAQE

T10: SNTG2, Q9NY99
T10 sequence (Q9NY99 68-166, limits assumed, looked up): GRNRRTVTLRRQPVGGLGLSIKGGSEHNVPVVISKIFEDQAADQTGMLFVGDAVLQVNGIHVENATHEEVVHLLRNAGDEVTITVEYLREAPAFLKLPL

T11: APBA2_1, Q99767
T11 sequence (Q99767 563-664, limits assumed, looked up): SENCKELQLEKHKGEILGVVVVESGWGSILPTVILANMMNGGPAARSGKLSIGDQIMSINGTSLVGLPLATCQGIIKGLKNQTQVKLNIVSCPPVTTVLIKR


Columns and labels:
Test in all cases: holdup assay
Parameters in all cases: key: below the threshold = too weak to quantify, mostly under pKd 3.1 to 4
Conditions in all cases: plain residues with an end cap or a label only (N-terminal biotin on a linker: ado-ado)
GRIP2_7, Q9C0E4 = molecular target: GRIP2_7, Q9C0E4
DLG3_1, Q92796 = molecular target: T1, DLG3_1, Q92796
TX1BP3, O14907 = molecular target: T2, TX1BP3, O14907
ARHGEF11, O15085 = molecular target: T3, ARHGEF11, O15085
Inadl_10, Q8NI35 = molecular target: Inadl_10, Q8NI35
LIN7C, Q9NUP9 = molecular target: T4, LIN7C, Q9NUP9
RAPGEF6, Q8TEU7 = molecular target: T5, RAPGEF6, Q8TEU7
PCLO, Q9Y6V0 = molecular target: T6, PCLO, Q9Y6V0
Inadl_9, Q8NI35 = molecular target: Inadl_9, Q8NI35
FRMPD3, Q5JV73 = molecular target: FRMPD3, Q5JV73
PARD3B_1, Q8TEW8 = molecular target: T7, PARD3B_1, Q8TEW8
GRASP, Q7Z6J2 = molecular target: GRASP, Q7Z6J2
LIN7A, O14910 = molecular target: T8, LIN7A, O14910
APBA1_2, Q02410 = molecular target: T9, APBA1_2, Q02410
SNTG2, Q9NY99 = molecular target: T10, SNTG2, Q9NY99
HTRA2, O43464 = molecular target: HTRA2, O43464
DLG1_2, Q12959 = molecular target: DLG1_2, Q12959
MAGI3_2, Q5TCQ9 = molecular target: MAGI3_2, Q5TCQ9
APBA2_1, Q99767 = molecular target: T11, APBA2_1, Q99767
MAGI2_6, Q86UL8 = molecular target: MAGI2_6, Q86UL8
DLG2_3, Q15700 = molecular target: DLG2_3, Q15700
LIMK2, P53671 = molecular target: LIMK2, P53671
FRMPD2_3, Q68DX3 = molecular target: FRMPD2_3, Q68DX3
DLG5_1, Q8TDM6 = molecular target: DLG5_1, Q8TDM6
LNX1_2, Q8TBB1 = molecular target: LNX1_2, Q8TBB1
AHNAK1, Q09666 = molecular target: AHNAK1, Q09666
LNX1_1, Q8TBB1 = molecular target: LNX1_1, Q8TBB1
Sequence of LNX1_1, Q8TBB1 (Q8TBB1 261-371): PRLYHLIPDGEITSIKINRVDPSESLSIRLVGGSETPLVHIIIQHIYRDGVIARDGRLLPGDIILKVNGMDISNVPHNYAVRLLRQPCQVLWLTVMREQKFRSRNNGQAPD

Sequence of DLG5_1, Q8TDM6 (Q8TDM6 617-713): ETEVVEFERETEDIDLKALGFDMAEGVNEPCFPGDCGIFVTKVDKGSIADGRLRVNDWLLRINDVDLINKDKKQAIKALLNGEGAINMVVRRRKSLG
Sequence of FRMPD3, Q5JV73 (Q5JV73 12-100): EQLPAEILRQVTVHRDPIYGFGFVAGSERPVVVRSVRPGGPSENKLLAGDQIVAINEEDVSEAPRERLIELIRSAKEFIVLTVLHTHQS
Sequence of GRIP2_7, Q9C0E4 (Q9C0E4 934-1023): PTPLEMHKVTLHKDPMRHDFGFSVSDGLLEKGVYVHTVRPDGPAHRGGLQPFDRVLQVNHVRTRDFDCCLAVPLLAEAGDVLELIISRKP
Sequence of Inadl_9, Q8NI35 (Q8NI35 1530-1615): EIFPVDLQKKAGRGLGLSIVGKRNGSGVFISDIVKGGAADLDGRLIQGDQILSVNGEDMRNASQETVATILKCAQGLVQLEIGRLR
Sequence of GRASP, Q7Z6J2 (Q7Z6J2 96-193): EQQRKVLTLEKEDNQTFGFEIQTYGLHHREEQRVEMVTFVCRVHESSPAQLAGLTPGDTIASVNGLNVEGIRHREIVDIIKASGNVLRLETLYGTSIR
Sequence of MAGI3_2, Q5TCQ9 (Q5TCQ9 398-503): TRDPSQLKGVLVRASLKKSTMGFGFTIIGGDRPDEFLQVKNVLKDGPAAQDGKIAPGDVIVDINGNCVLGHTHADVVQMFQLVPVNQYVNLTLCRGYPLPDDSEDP
Sequence of MAGI2_6, Q86UL8 (Q86UL8 1141-1229): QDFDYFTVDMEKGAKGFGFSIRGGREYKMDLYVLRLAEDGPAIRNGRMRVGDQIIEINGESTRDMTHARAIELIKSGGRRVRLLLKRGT
Sequence of HTRA2, O43464 (O43464 355-458): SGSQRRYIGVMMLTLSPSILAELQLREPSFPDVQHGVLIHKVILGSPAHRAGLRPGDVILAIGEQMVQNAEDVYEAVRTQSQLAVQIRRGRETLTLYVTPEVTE
Sequence of DLG1_2, Q12959 (Q12959 314-412): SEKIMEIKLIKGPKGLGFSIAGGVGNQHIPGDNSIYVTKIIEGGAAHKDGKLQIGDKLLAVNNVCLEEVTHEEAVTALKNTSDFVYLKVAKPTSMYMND
Sequence of Inadl_10, Q8NI35 (Q8NI35 1673-1763): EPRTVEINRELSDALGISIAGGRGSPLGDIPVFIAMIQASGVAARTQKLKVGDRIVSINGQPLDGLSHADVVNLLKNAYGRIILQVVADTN
Sequence of AHNAK1, Q09666 (Q09666 4-100): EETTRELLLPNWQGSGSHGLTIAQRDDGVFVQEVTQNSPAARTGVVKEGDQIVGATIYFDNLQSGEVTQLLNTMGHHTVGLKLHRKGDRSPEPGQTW
Sequence of LIMK2, P53671 (P53671 143-248): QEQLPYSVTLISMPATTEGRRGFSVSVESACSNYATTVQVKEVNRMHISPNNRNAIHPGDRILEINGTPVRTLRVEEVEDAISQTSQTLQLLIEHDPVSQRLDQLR
Sequence of FRMPD2_3, Q68DX3 (Q68DX3 1073-1166): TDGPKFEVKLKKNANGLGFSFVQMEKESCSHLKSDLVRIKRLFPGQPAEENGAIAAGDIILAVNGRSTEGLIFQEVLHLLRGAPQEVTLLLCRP
Sequence of LNX1_2, Q8TBB1 (Q8TBB1 371-470): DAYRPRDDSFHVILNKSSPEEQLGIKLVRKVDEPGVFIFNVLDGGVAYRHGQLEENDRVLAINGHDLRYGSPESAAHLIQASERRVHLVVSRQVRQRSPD

Binder | pKd (GRIP2_7, Q9C0E4) | pKd (DLG3_1, Q92796) | pKd (TX1BP3, O14907) | pKd (ARHGEF11, O15085) | pKd (Inadl_10, Q8NI35) | pKd (LIN7C, Q9NUP9) | pKd (RAPGEF6, Q8TEU7) | pKd (PCLO, Q9Y6V0) | pKd (Inadl_9, Q8NI35) | pKd (FRMPD3, Q5JV73) | pKd (PARD3B_1, Q8TEW8) | pKd (GRASP, Q7Z6J2) | pKd (LIN7A, O14910) | pKd (APBA1_2, Q02410) | pKd (SNTG2, Q9NY99) | pKd (HTRA2, O43464) | pKd (DLG1_2, Q12959) | pKd (MAGI3_2, Q5TCQ9) | pKd (APBA2_1, Q99767) | pKd (MAGI2_6, Q86UL8) | further results
KKMPSIESDV [GRIN2A, Q12879] | below the threshold | 4.35 | 5.13 | below the threshold | below the threshold | below the threshold | below the threshold | below the threshold | below the threshold | below the threshold | below the threshold | below the threshold | below the threshold | below the threshold | 4.41 | below the threshold | 5.44 | 4.32 | below the threshold | 4.91 | pKd (DLG2_3, Q15700): 3.74; pKd (LIMK2, P53671): below the threshold; pKd (FRMPD2_3, Q68DX3): below the threshold; pKd (DLG5_1, Q8TDM6): below the threshold; pKd (LNX1_2, Q8TBB1): below the threshold; pKd (AHNAK1, Q09666): below the threshold; pKd (LNX1_1, Q8TBB1): 4.04
HSGYRLNDYV [CLDN14, O95500] | below the threshold | below the threshold | 4.24 | 3.71 | below the threshold | below the threshold | below the threshold | below the threshold | 3.58 | below the threshold | below the threshold | 3.74 | below the threshold | 3.84 | below the threshold | 3.74 | 3.77 | below the threshold | below the threshold | 4.12 | pKd (DLG2_3, Q15700): below the threshold; pKd (LIMK2, P53671): below the threshold; pKd (FRMPD2_3, Q68DX3): below the threshold; pKd (DLG5_1, Q8TDM6): below the threshold; pKd (LNX1_2, Q8TBB1): 3.61; pKd (AHNAK1, Q09666): below the threshold; pKd (LNX1_1, Q8TBB1): below the threshold
TSSMRGMDAV [RSRC2, Q7L4I2] | below the threshold | below the threshold | below the threshold | below the threshold | below the threshold | 3.97 | below the threshold | below the threshold | below the threshold | below the threshold | below the threshold | below the threshold | below the threshold | 3.86 | below the threshold | below the threshold | below the threshold | below the threshold | below the threshold | below the threshold | pKd (DLG2_3, Q15700): below the threshold; pKd (LIMK2, P53671): below the threshold; pKd (FRMPD2_3, Q68DX3): below the threshold; pKd (DLG5_1, Q8TDM6): below the threshold; pKd (LNX1_2, Q8TBB1): below the threshold; pKd (AHNAK1, Q09666): below the threshold; pKd (LNX1_1, Q8TBB1): below the threshold
DDENIRTSDV [PLEKHA2, Q9HB19] | below the threshold | below the threshold | 4.75 | 4.2 | below the threshold | below the threshold | below the threshold | below the threshold | below the threshold | below the threshold | below the threshold | 3.82 | below the threshold | below the threshold | 4.08 | below the threshold | 4.46 | 4.05 | below the threshold | 5.21 | pKd (DLG2_3, Q15700): below the threshold; pKd (LIMK2, P53671): below the threshold; pKd (FRMPD2_3, Q68DX3): below the threshold; pKd (DLG5_1, Q8TDM6): below the threshold; pKd (LNX1_2, Q8TBB1): below the threshold; pKd (AHNAK1, Q09666): below the threshold; pKd (LNX1_1, Q8TBB1): 4.5
TACCHSETVV [TGFA, P01135] | below the threshold | 4.19 | 3.82 | 4.44 | below the threshold | below the threshold | below the threshold | below the threshold | below the threshold | below the threshold | below the threshold | 3.5 | 3.51 | 3.87 | 4.38 | below the threshold | 4.89 | 5.27 | below the threshold | 3.81 | pKd (DLG2_3, Q15700): 4.05; pKd (LIMK2, P53671): below the threshold; pKd (FRMPD2_3, Q68DX3): 3.56; pKd (DLG5_1, Q8TDM6): below the threshold; pKd (LNX1_2, Q8TBB1): 3.9; pKd (AHNAK1, Q09666): below the threshold; pKd (LNX1_1, Q8TBB1): 4.12
